Assays:
[1] = molecular target: fully lipid-modified Shh secreted by human HT29 cells (human) (UniProt Q15465); assay: cell-based or functional assay
[2] = molecular target: Shh (human Sonic hedgehog residues 25-197, N-terminal His6-tag) (human) (UniProt Q15465); assay: SPR (BIAcore-2000), 5E1 IgG immobilized on CM5, Hh injected, 1:1 Langmuir fit
[3] = molecular target: Human Ihh (residues 29-202), N-terminal His6-tag (human) (UniProt Q14623); assay: as above
[4] = molecular target: biotinylated-ShhN-Cys (human Shh residues 24-197, N-terminal His6-tag, biotin conjugated) (human) (UniProt Q15465); assay: competition ELISA: 5E1 against immobilized Hhip1β12 for biotinylated ShhN-Cys
[5] = molecular target: Shh649 (ShhC-Cys conjugated with DyLight 649 Maleimide) (human) (UniProt Q15465); assay: FACS competition: 1 nM Shh649 preincubated with 5E1, then bound to Ptch1-expressing 293 cells; the blocked partner is Ptch1

Sequence of Human Ihh (residues 29-202), N-terminal His6-tag (human) (Q14623 other isoform, or with tags, fused parts or gaps limits assumed): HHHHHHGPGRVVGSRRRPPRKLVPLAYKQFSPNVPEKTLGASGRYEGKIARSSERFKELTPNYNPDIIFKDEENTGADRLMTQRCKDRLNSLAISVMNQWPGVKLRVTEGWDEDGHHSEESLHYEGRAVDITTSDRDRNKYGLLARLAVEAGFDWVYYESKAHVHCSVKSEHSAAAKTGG

IC50, inhibition of Gli-luciferase activity in HT29/S12 co-culture [1]	Kd [2]	Kd [3]	IC50 [4]	IC50 (read off the curve) [5]	Substance
5.3 nM					Hhip1ECD (Hhip1 extracellular domain, residues 20-667), N-terminally His6-tagged (from UniProt Q96QV1 20-667) (receptor)
	3 nM	3 nM	23 nM	0.5 nM	anti-Shh monoclonal antibody 5E1
